The record followed here is patent publication US7229621B2, “Method to enhance the immunogenicity of an antigen” (Torrey Pines Institute for Molecular Studies, priority 1998, dated 2007).

Test [1] has as its target T1, MHC class I molecule K^b (Mus musculus, UniProt P01901).
T1 construct: endogenous in cells; host or cells: primary epidermal Langerhans cells from C57BL/6 dorsal ear skin explants
T1 sequence (P01901 22-369): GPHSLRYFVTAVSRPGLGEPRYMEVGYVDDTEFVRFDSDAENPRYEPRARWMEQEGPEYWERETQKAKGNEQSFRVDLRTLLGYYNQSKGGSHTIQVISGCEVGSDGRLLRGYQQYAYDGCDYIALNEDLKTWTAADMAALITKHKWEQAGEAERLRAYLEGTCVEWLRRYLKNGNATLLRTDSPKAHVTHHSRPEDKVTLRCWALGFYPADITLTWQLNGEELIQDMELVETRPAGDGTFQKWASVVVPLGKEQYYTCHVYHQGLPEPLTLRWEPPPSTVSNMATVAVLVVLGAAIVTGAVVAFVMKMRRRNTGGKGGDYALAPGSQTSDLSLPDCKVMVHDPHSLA
T1 sequence (P01887 21-119 partner): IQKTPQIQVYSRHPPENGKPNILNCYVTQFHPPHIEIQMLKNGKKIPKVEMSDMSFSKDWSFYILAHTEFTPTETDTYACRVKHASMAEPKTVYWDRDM
Put plainly: […]:K^b complexes on primary epidermal Langerhans cells in vitro (mAb 25-D1.16 flow cytometry). Format: cell-based, C57BL/6 mice. The settings on record: 1.5 hrs. The source says:
To evaluate the immunogenic potential of various vaccine formulations and delivery methods, an antigen system that permits quantitative determination of the number of specific peptide:MHC complexes expressed on the cell membrane was used. To date, the only direct way to quantitate antigenic epitopes expressed on living cells and recognized by T cells is with the use of monoclonal antibodies (mAbs) specific for individual peptide:MHC complexes. Chicken ovalbumin (OVA) is a 40 kDa protein that has been used for many years as a prototypic experimental antigen for immunologic studies. The OVA257-264 peptide, […] (963 Da), is processed and presented in the peptide-binding groove of the MHC class I molecule K^b. The mAb, 25-D1.16, has specificity for the […]:K^b complex (Porgador et al. 1997 Immunity 6:715–726).
Primary epidermal Langerhans cells were obtained from cultured explants of C57BL/6 dorsal ear skin according to the method of Ortner et al. (Ortner et al. 1996 J. Immunol. Meth. 193:71). Over a period of 72 hrs in culture, Langerhans cells mature and migrate out of the explant, dropping onto the bottom of the culture dish. These cells were harvested and incubated for 1.5 hrs at 37° C. with various concentrations of synthetic […] peptide. The cells were then washed and stained with a FITC-conjugated anti-MHC class II (I-A^b) mAb, as well as with affinity purified and biotinylated 25-D1.16 followed by PE-avidin, and analyzed on a FACScan® flow cytometer. Non-specific binding of immunoglobulin proteins was blocked by pre-incubation and staining of the cells in a mixture of isotype control mAbs (rat IgG2a, rat IgG2b, mouse IgG1 and mouse IgG2a, each at 100–200 μg/ml) and the anti-Fc receptor mAb 2.4G2. Langerhans cells were identified by their characteristic light scatter properties (high forward, moderate side scatter) and exceptionally high levels of MHC class II expression, with the latter used to optimize the light scatter gate for each experiment. Dead cells were excluded from analysis by their uptake of 7AAD (7-amino-actinomycin D).
Each data point represents the mean and S.E. of 3 to 5 independent experiments. […]
As stated previously, whether mature antigen-bearing dendritic cells will be encountered by and activate naive T cells in the lymph node is likely to depend not only on the number of antigen-bearing dendritic cells that enter the node, but also on the density of MHC:peptide complexes expressed on their membranes. To estimate the density of peptide:MHC complexes on the immigrant dendritic cells generated by this procedure, we compared the fluorescence intensity of various cell populations detected by the peptide:MHC-specific mAb, 25-D1.16, using identical staining conditions and flow cytometer settings. The results are shown in Table IV, providing the number of specific peptide:MHC complexes expressed on the plasma membrane of dendritic cells after various treatments in vitro or in vivo.
(A flow cytometer gives signals particle by particle.)

For test [2], the system named is E.G7-OVA tumor cells. Kind of test: E.G7-OVA tumor growth after immunization with tumor antigen and migration inducer. Format: in vivo, C57BL/6 mice. From the text:
The tumor cell, E.G7-OVA, is the C57BL/6 EL4 thymoma transfected with the complete gene for chicken ovalbumin (OVA). The transfected cell line expresses OVA protein, which is also processed naturally by E.G7-OVA cells into an eight amino acid peptide, OVA257-264, with the sequence […]. […] Based on the positive results using FITC, the inventors followed a similar protocol in an attempt to induce immunity to the E.G7-OVA tumor by topical administration of the well-characterized, synthetic […] tumor-associated peptide.
C57BL/6 mice were treated as follows: 1) shaving alone; 2) topical administration of acetone and dibutyl phthalate; 3) topical administration of […] (240 μg/ml) in DMSO diluted in PBS, followed in 5 hours by acetone and dibutyl phthalate; and 4) topical administration of […] (240 μg/ml) in acetone and dibutyl phthalate. All mice were subsequently injected subcutaneously with 5×10^5 E.G7-OVA cells (5-times the minimal tumorogenic dose). Tumor-specific immunity was monitored by measuring the size of the developing tumor.
The mucous membranes lack the tough barrier posed by the stratum corneum of the skin. […] The EL4 parent tumor cell line, lacking chicken ovalbumin, was used as a negative control; no immunity against the EL4 tumor cells was seen. Thus, the inventors' hypothesis regarding penetration of the stratum corneum was confirmed; the […] peptide was not effectively reaching the immature dendritic cells, known as Langerhans cells, underlying the stratum corneum.
To enhance the effectiveness of cutaneous topical administration of peptide, […] was dissolved in DMSO and applied to the skin without further dilution. Dibutyl phthalate in a 50:50 mixture with acetone was applied to the same site 5 hr later. All mice were subsequently injected subcutaneously with 5×10^5 E.G7-OVA cells. The results shown in FIG. 6 indicate that the peptide in concentrated DMSO was apparently able to traverse the stratum corneum, effectively gaining access to the epidermal Langerhans cells. […] Thus, the tumor-specific peptide, […], in concentrated DMSO, penetrated the stratum corneum in sufficient concentration to be incorporated into the MHC class I molecule K^b on epidermal Langerhans cells, and in the presence of the migration inducer, dibutyl phthalate, was effectively presented to CD8+ CTLs in the draining lymph nodes.
To confirm the immunogenicity of the disclosed treatment, groups of 10 C57BL/6 mice were injected with 50 μl of 1.25 mM OVA protein in HBSS, with HBSS alone, or with nothing. This was followed an hour later by topical application of DBP in acetone or with nothing. One month later, the mice were inoculated subcutaneously with 5×10^5 EL4 tumor cells or with 5×10^5 E.G7-OVA tumor cells and subsequent tumor growth was measured.

With “SIINFEKL [eight amino acid peptide OVA257-264 of chicken ovalbumin, tumor-associated peptide antigen presented by K^b]”, the “Median No. of Complexes/Cell” value is 240 complexes/cell in test [1] (0.1 nM SIINFEKL in vitro); 1,600 complexes/cell in test [1] (1.0 nM SIINFEKL in vitro); 4,180 complexes/cell in test [1] (10 nM SIINFEKL in vitro); 11,160 complexes/cell in test [1] (100 nM SIINFEKL in vitro); 15,200 complexes/cell in test [1] (1 μM SIINFEKL in vitro). The “Median Specific Fl. Intensity” value in test [1] (0.1 nM SIINFEKL in vitro) was 12; in test [1] (1.0 nM SIINFEKL in vitro), 80; in test [1] (10 nM SIINFEKL in vitro) it was 209; in test [1] (100 nM SIINFEKL in vitro), 558; in test [1] (1 μM SIINFEKL in vitro), 760. Further, the “protection against E.G7-OVA tumor” value in test [2] (SIINFEKL in acetone and dibutyl phthalate applied to the vaginal epithelium (FIG. 5)) is recorded as “protection against the tumor was induced”. Also, the “established E.G7-OVA tumors” value in test [2] (SIINFEKL in undiluted DMSO on skin, dibutyl phthalate 50:50 acetone 5 hr later (FIG. 6)) was “diminished by 16 days post-inoculation”. Also, the E.G7-OVA tumor growth entry in test [2] (SIINFEKL in undiluted DMSO on skin, dibutyl phthalate 50:50 acetone 5 hr later, 5×10^5 cells s.c. (FIG. 6)) is given as “suppressed after 6 to 9 days”. In addition, the “inhibition of E.G7-OVA tumor cell growth” value in test [2] (cutaneous topical SIINFEKL 240 μg/ml in DMSO diluted in PBS then acetone and dibutyl phthalate, or in acetone and dibutyl phthalate, 5×10^5 cells s.c. (FIG. 4)) was “none of the treatment protocols were effective”.
